Experimental data: US20180127498A1 (UCB, published 2018)
“And” between values parts separate entries of the source, which are not always exact repeats. Equal values may be shown once.

How the values were obtained:
[1] = biological target: T1, Cynomolgus monkey FcRn extracellular domain (non-covalent complex of Cynomolgus monkey FcRn alpha chain … (Cynomolgus monkey, UniProt Q8SPV9 24-297; Q8SPW0 21-119); assay: SPR Biacore T200, binder captured via anti-human F(ab')2, cyno FcRn ECD as analyte, pH7.4, average of 5; pH 7.4
T1 construct: also called non-human primate FcRn
Method: (§1) Biomolecular interaction analysis using surface plasmon resonance technology (SPR) was performed on a Biacore T200 system (GE Healthcare) and binding to Cynomolgus monkey FcRn extracellular domain determined. Cynomolgus monkey FcRn extracellular domain was provided as a non-covalent complex between the Cynomolgus monley FcRn alpha chain extracellular domain (SEQ ID NO: 17) and […] (β2M) (SEQ ID NO: 18). Affinipure F(ab′)₂ fragment goat anti-human IgG, F(ab′)₂-specific (Jackson ImmunoResearch Lab, Inc.) at 50 μg/ml in 10 mM NaAc, pH 5 buffer was immobilized on a CMS Sensor Chip via amine coupling chemistry to a capture level between 4000-5000 response units (RU) using HBS-EP⁺ (GE Healthcare) as the running buffer.
(§2) The antibody, 1735h5.hFab-scFv.768 diluted to0.5 μg/ml in running buffer and an injection of 60 s at 10 μl/min was used for capture by the immobilized anti-human F(ab′)₂. […] The surface was regenerated at 10 μl/min by 2×60 s 50 mM HCl for the running buffer at pH6 or by 60 s 40 mM HCl and 30 s 10 mM NaOH for the running buffer at pH7.4.
(§3) The data was analysed using Biacore T200 evaluation software (version 1.0) using the 1:1 binding model with local Rmax.

[2] = biological target: T2, Human FcRn extracellular domain (non-covalent complex of human FcRn alpha chain extracellular domain and … (human, UniProt P55899 24-297; P61769 21-119); assay: SPR Biacore T200, binder captured via anti-human F(ab')2, FcRn ECD as analyte, pH6, average of 5; pH 6
T2 construct: also called hFcRn
Method: (§4) Biomolecular interaction analysis using surface plasmon resonance technology (SPR) was performed on a Biacore T200 system (GE Healthcare) and binding to human FcRn extracellular domain determined. Human FcRn extracellular domain was provided as a non-covalent complex between the human FcRn alpha chain extracellular domain (SEQ ID NO: 21) and β2 microglobulin (β2M) (SEQ ID NO: 23). Affinipure F(ab′)₂ fragment goat anti-human IgG, F(ab′)₂-specific (Jackson ImmunoResearch Lab, Inc.) at 50 μg/ml in 10 mM NaAc, pH 5 buffer was immobilized on a CMS Sensor Chip via amine coupling chemistry to a capture level between 4000-5000 response units (RU) using HBS-EP⁺(GE Healthcare) as the running buffer.
(§5) The antibody, 1735h5.hFab-scFv.768 was diluted to 0.25 μg/ml in running buffer and an injection 60 s at 10 μl/min was used for capture by the immobilized anti-human F(ab)₂. […] The surface was regenerated at 10 μl/min by 2×60 s 50 mM HCl for the running buffer at pH6 or by 60 s 40 mM HCl and 30 s 10 mM NaOH for the running buffer at pH7.4. The data was analysed using Biacore T200 evaluation software (version 1.0) using the 1:1 binding model with local Rmax.

[3] = biological target: T1, Cynomolgus monkey FcRn extracellular …; assay: SPR Biacore T200, binder captured via anti-human F(ab')2, cyno FcRn ECD as analyte, pH7.4; pH 7.4
Method: as §1, §2, §3

[4] = biological target: T1, Cynomolgus monkey FcRn extracellular …; assay: SPR Biacore T200, binder captured via anti-human F(ab')2, cyno FcRn ECD as analyte, pH6, average of 5; pH 6
Method: as §1, §2, §3

[5] = biological target: T2, Human FcRn extracellular domain …; assay: SPR Biacore T200, binder captured via anti-human F(ab')2, FcRn ECD as analyte, pH7.4, average of 5; pH 7.4
Method: as §4, §5

[6] = biological target: T2, Human FcRn extracellular domain …; assay: SPR Biacore T200, binder captured via anti-human F(ab')2, FcRn ECD as analyte, pH6; pH 6
Method: as §4, §5

[7] = biological target: T1, Cynomolgus monkey FcRn extracellular …; assay: SPR Biacore T200, binder captured via anti-human F(ab')2, cyno FcRn ECD as analyte, pH6; pH 6
Method: as §1, §2, §3

B1: 1735h5.hFab-scFv.768 (bispecific antibody)
heavy: EVQLVESGGGLVQPGGSLRLSCAASGFSLSTYGVGVGWVRQAPGKGLEWLANIWWDDDKRYNPSLENRFTISRDNAKNSAYLQMNSLRAEDTAVYYCARTPAYYGSHPPFDYWGQGTMVTVSSASTKGPSVFPLAPSSKSTSGGTAALGCLVKDYFPEPVTVSWNSGALTSGVHTFPAVLQSSGLYSLSSVVTVPSSSLGTQTYICNVNHKPSNTKVDKKVEPKSCSGGGGTGGGGSEVQLLESGGGLVQPGGSLRLSCAVSGIDLSNYAINWVRQAPGKCLEWIGIIWASGTTFYATWAKGRFTISRDNSKNTVYLQMNSLRAEDTAVYYCARTVPGYSTAPYFDLWGQGTLVTVSSGGGGSGGGGSGGGGSGGGGSDIQMTQSPSSVSASVGDRVTITCQSSPSVWSNFLSWYQQKPGKAPKLLIYEASKLTSGVPSRFSGSGSGTDFTLTISSLQPEDFATYYCGGGYSSISDTTFGCGTKVEIKRT
light: DIQMTQSPSSLSASVGDRVTITCRTSEDIYTNLAWYQQKPGKVPKLLIYVAKTLQEGVPSRFSGSGSGTHYTLTISSLQPEDVATYYCLQGFKFPWTFGGGTKVEIKRTVAAPSVFIFPPSDEQLKSGTASVVCLLNNFYPREAKVQWKVDNALQSGNSQESVTEQDSKDSTYSLSSTLTLSKADYEKHKVYACEVTHQGLSSPVTKSFNRGEC
notes: Anti-FcRn Fab (1638.g49 V-regions) fused at the C-terminus of CH1 to an anti-albumin disulphide stabilised scFv; expressed in CHO DG44; Monovalent for FcRn; also called Fab-dsscFv fusion protein comprising the 1638.g49 variable domains; anti-hFcRn 1735h5.hFab-scFv.768
For B1, the Kd [1] was 0.045 nM, the koff [1] was 4.52e-05 s⁻¹ and the kon [1] was 1e+06 M⁻¹ s⁻¹. For the same binder, the Kd [2] was 0.16 nM, the koff [2] was 0.000181 s⁻¹ and the kon [2] was 1.13e+06 M⁻¹ s⁻¹. The kon [3] was 1e+06 M⁻¹ s⁻¹ (2×) and 999000 M⁻¹ s⁻¹, the Kd [4] was 0.158 nM and the koff [4] was 0.000197 s⁻¹. The kon [4] was 1.25e+06 M⁻¹ s⁻¹, the Kd [5] was 0.0458 nM and the koff [5] was 3.94e-05 s⁻¹. For the same binder, the kon [5] was 861000 M⁻¹ s⁻¹, the kon [6] was 1.2e+06 M⁻¹ s⁻¹ and 1.1e+06 M⁻¹ s⁻¹ (3×) and the kon [7] was 1.26e+06 M⁻¹ s⁻¹ and 1.24e+06 M⁻¹ s⁻¹.
